Data as given in IntAct's records for PubMed 18583988.

Target: csk21_human CSNK2A1 (UniProt P68400)
Sequence of UniProt P68400 (P68400 whole entry, looked up): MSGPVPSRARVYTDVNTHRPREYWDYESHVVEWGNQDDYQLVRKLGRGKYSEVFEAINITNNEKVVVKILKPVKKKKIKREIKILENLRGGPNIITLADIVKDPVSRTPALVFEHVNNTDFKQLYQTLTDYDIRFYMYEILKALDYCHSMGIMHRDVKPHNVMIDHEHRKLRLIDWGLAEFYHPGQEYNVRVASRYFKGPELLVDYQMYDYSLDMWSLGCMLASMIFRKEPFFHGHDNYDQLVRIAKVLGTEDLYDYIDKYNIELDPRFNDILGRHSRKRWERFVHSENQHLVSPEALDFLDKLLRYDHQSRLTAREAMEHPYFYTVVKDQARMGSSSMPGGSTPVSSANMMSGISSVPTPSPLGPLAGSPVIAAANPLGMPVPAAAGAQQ

Row | Substance | effect of a mutation on the interaction
1 | Mediator of DNA damage checkpoint protein 1 (Homo sapiens), Q14676 T331A | disrupting interaction
2 | Mediator of DNA damage checkpoint protein 1 (Homo sapiens), Q14676 T301A | disrupting interaction
